Experimental data: the supplement of paper PMC9732359
± gives the uncertainty stated by the source.

Assay: protein stability index of a GFP-peptide fusion (yeast GPS) (PSI 1-4); higher = more stable; sorted into four equal gates, so the index is relative within each strain
Details: ubr1∆
How it was run: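 Tiled 17-residue yeast protein peptides were fused downstream of GFP in a plasmid that also expresses Cherry, and the pooled library was carried in yeast. Mid-log cultures in leucine-free medium were sorted into four equal gates by GFP/Cherry fluorescence ratio, and plasmids from each gate were PCR-amplified and Illumina-sequenced, with reads assigned to strains by barcodes. The protein stability index for each peptide was each gate's read frequency times its gate number, summed.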

Point of comparison: DVFTINPHQKDQLIISS [YML103C/NUP188], protein stability index 2.74 ± 0.24. Against it:
- DKYHPGYFGKVGMRYFH [RPL28] — within error, 2.96 ± 0.044
- DKYKLYPVRIPRLDTSK [YJR042W/NUP85] — higher, 3.24 ± 0.065
- DLASSKEVLAKIVDLLA [RPN5] — within error, 2.97 ± 0.11
- DLAVCATIIGIISTAIA [ECM29] — lower, 1.95 ± 0.029
- DLEEVKRFQVLYPCYFD [SEC65] — lower, 2.34 ± 0.12
- DLKESMVKGLLKSFTES [ECM29] — higher, 3.34 ± 0.096
- DLLKNAPLFKKNSSRPM [SMD3] — lower, 1.62 ± 0.034
- DLSGADIQAMCTEAGLL [RPT2] — higher, 3.42 ± 0.062
- DLSISALLGDKIYNFGE [RPN9] — higher, 3.12 ± 0.091
- DLSLIVKARHGGCDYIF [CYT1] — within error, 2.46 ± 0.061
- DLSRNGRNGSNGNDESS [NUT1] — higher, 3.14 ± 0.068
- DLYHFALNYENEAGRKL [SNF2] — higher, 3.76 ± 0.26
- DMDPLAVSAASVVSMSN [SIR2] — lower, 2.19 ± 0.072
- DMQSSVDTGLQPQHPHY [YLR018C/POM34] — within error, 2.956 ± 0.029
- DNDSLTDLESLSSGESN [SIR4] — higher, 3.09 ± 0.073
- DNEGVASKSKKKFNMGK [RPC53] — higher, 3.42 ± 0.08
- DNEQNLESDFVTGASQF [PRE2] — within error, 2.96 ± 0.076
- DNGESAFRTLRLARSEK [RPL13A] — higher, 3.31 ± 0.084
- DNHSGDATANATANATA [DSN1] — higher, 3.13 ± 0.071
- DNKMDSVKEDVKNNQEL [SMC4] — higher, 3.36 ± 0.14
- DNNNGDDDDEDDDEIVM [SKP1] — within error, 2.99 ± 0.048
- DNNYNTAETNNKVHETS [YDL088C/ASM4] — within error, 2.81 ± 0.051
- DNPLRQIPHFNNKILEK [BRR2] — higher, 3.19 ± 0.08
- DNSATSYYELETIIFDS [RRI1] — higher, 3.06 ± 0.041
- DNSFNELTDNMSDFVPI [MCD1] — higher, 3.23 ± 0.064
- DNVQANDPAREKFSSFI [SNF12] — higher, 3.11 ± 0.043
- DNVSSQQMHEVRKELRG [RPP0] — within error, 2.82 ± 0.13
- DPDLGLDLMFDEVYVQN [YJL039C/NUP192] — within error, 2.85 ± 0.038
- DPFKTSSFNKRSKFLST [IRR1] — lower, 2.12 ± 0.057
- DPFSDVDDDQDYVVAPG [GRR1] — higher, 3.55 ± 0.24
- DPLAKVNVLLQSYFSQL [BRR2] — lower, 1.54 ± 0.05
- DPNIKVNDTVKIDLASG [RPS4A] — lower, 2.41 ± 0.053
- DPTLTTTTSFTTSEATA [RPN4] — within error, 2.92 ± 0.066
- DPWNKLKHTDYWYEQDS [RPB3] — within error, 2.99 ± 0.12
- DQDKVNFASGDNNTASN [RPB3] — within error, 2.5 ± 0.18
- DQMVVGWYHSHPGFGCW [RPN11] — lower, 2.21 ± 0.087
- DQYLWYEADQRKLFPNW [PRP8] — within error, 3.13 ± 0.19
- DRDESSPYAAMLAAQDV [RPS14A] — higher, 3.27 ± 0.078
- DRFIELISDQLLEFFEL [YML103C/NUP188] — the same, 2.74 ± 0.049
- DRKIEFPPPSVAARAEI [RPT6] — lower, 1.39 ± 0.052
- DRKNRAPPQRPRFNREN [RPS26A] — within error, 3.02 ± 0.091
- DRMDVDEDESQNIAQSS [HRT1] — lower, 2.43 ± 0.05
- DRVAKVLTYPEKVTRYN [RPO31] — within error, 2.98 ± 0.17
- DSDGTRLKGDIFCVGSG [PRE2] — within error, 2.45 ± 0.061
- DSESDSDSETNHKSKDN [SKP1] — higher, 3.1 ± 0.044
- DSFIEKIIPKDISATQL [ITC1] — higher, 3.13 ± 0.085
- DSFKYEPLAPGNDNLIK [YLR335W/NUP2] — within error, 2.85 ± 0.044
- DSGIGSNGSGIVAAGGG [CSL4] — higher, 3.42 ± 0.058
- DSKNTPNVFDKDSYVRI [YDL088C/ASM4] — higher, 3.25 ± 0.051
- DSLTQNNNNAPIIIYGT [YOR098C/NUP1] — within error, 2.92 ± 0.038
- DSNGDFNEDQLFSLLEL [RRP46] — within error, 2.98 ± 0.1
- DSNMDSISSVVSEDLLD [RPN4] — lower, 2.45 ± 0.032
- DSNSEILNFLNQEDLFE [YML103C/NUP188] — higher, 3.14 ± 0.086
- DSPASNEDDLTVKLTEI [RPO31] — higher, 3.19 ± 0.056
- DSSSVSEDSAVFKATSS [FAS1] — higher, 3.14 ± 0.083
- DSTQLLETILEEFRNLA [SSN2] — higher, 3.2 ± 0.054
- DSVENSSNILEDILYYS [SRB8] — within error, 2.72 ± 0.059
- DSVFSFGPKKENRKKDE [YLR335W/NUP2] — within error, 3.03 ± 0.056
- DTDKLPIKNRTSKSFSK [SIN4] — within error, 2.92 ± 0.068
- DTETFDTVNSALENDVA [YML103C/NUP188] — within error, 2.69 ± 0.17
- DTFVHVTDLSGKETIAR [RPS14B] — within error, 2.98 ± 0.058
- DTKDALSTRELAGKVGS [RPC53] — higher, 3.08 ± 0.071
- DTKSVVGLVMFSQFWYW [RPN2] — within error, 2.52 ± 0.04
- DTSDIIVDPTAEQLKIS [RRP46] — lower, 2.12 ± 0.092
- DVAFADGGKTLRACAAN [YMR129W/POM152] — lower, 2.36 ± 0.1
- DVDPEFYLKYVDIRVGK [RET1] — within error, 2.54 ± 0.1
- DVEENRSEFIESLLNWI [YJR042W/NUP85] — higher, 3.34 ± 0.069
- DVETVKREIQEALSEKP [RPC53] — higher, 3.35 ± 0.1
- DVIHFEDSSILQSIVNE [PCI8] — higher, 3.47 ± 0.073
- DVKLLNPIDIKRRFGEL [RPP1] — within error, 2.97 ± 0.047
- DVLKDGENNINFQKASA [BRN1] — higher, 3.31 ± 0.11
- DVPAYNVTSFMPFWKFF [SRB8] — lower, 1.56 ± 0.031
- DVVEYLDKVINKELPIN [RPN8] — within error, 3.12 ± 0.19
- DVVGTLSRNGKPVMEVT [FAS1] — within error, 2.63 ± 0.08
- DWEDEEKYEDEDEEKIL [DSN1] — higher, 3.25 ± 0.15
- DYGEEIKSGVAKLESLL [MTW1] — higher, 3.4 ± 0.087
- DYLTLNKVVVNLNDAGL [RPN2] — higher, 3.16 ± 0.06
- DYNLRIYCYFLIMKLGR [SSN8] — lower, 1.39 ± 0.11
- DYSEIQRSRRKFSERRK [DSN1] — within error, 2.75 ± 0.16
- DYVASLNELYQTQQDLP [NSL1] — higher, 3.06 ± 0.039
- EAAKLLVDSLATFTSIE [RPN7] — within error, 2.68 ± 0.096
- EAASSNKSFIVDQGQIY [ITC1] — within error, 2.93 ± 0.05
- EAIETCKNFEKTQLGST [GAL11] — higher, 3.36 ± 0.24
- EARAEAINLMGVKNNLL [RPO31] — lower, 1.66 ± 0.24
- EARFDVLITSYEMVIRE [ISW2] — lower, 2.02 ± 0.11
- EARINELLSSLEGKGSL [RPP2B] — higher, 3.2 ± 0.077
- EARLRNLTYSSGLFVDV [RPB2] — lower, 1.79 ± 0.028
- ECADLWPRVASNSGVVV [RPL23A] — higher, 3.17 ± 0.062
- ECLPAEGHDWKAPTKLD [DIS3] — higher, 3.23 ± 0.079
- EDAFNFWFDKLVTKILP [YCG1] — within error, 2.94 ± 0.11
- EDCVEEFFHLQHYLDTA [QCR6] — higher, 3.31 ± 0.068
- EDEDDDDDDDEDEEEEE [QCR6] — higher, 3.84 ± 0.17
- EDEEDDNISSFHSAVEN [YCG1] — within error, 2.6 ± 0.063
- EDGLLEGLDELPKIIQL [SOH1] — higher, 3.15 ± 0.051
- EDGTIESYNQNDWKLET [SIN4] — within error, 2.98 ± 0.11
- EDHIFFKYIYELILAGA [YDL116W/NUP84] — lower, 1.66 ± 0.061
- EDSENPSDWQRNSFIRD [ITC1] — higher, 3.27 ± 0.067
- EEAAEESDDDMGFGLFD [RPP1B] — higher, 3.23 ± 0.037
- EEASQQQQLQQNSKEKN [MED2] — within error, 2.83 ± 0.065
